For assay [1], the target named is Mis12 complex (full length; MIS12, PMF1, NSL1, DSN1) (human) (UniProt Q9H081). Nature of the assay: ITC. (In ITC the heat of successive injections is recorded.)
Assay [2] shares this target. The assay is described as follows: BLI. For orientation: Biolayer interferometry detects binding as a change in optical thickness at a sensor tip.
Assay [3] deals with Mis12C/KNL1^2026-2342 complex (human) (UniProt Q9H081). Nature of the assay: BLI.
Assay [4] addresses Ndc80 complex (NDC80/HEC1, NUF2, SPC24, SPC25) (human, UniProt O14777 1-642; Q9BZD4 1-464; Q8NBT2 1-197; Q9HBM1 1-224). The assay is described as follows: BLI.
Assay [5] addresses T1, NSL1 (subunit of the Mis12 complex in the KMN cryo-EM sample) (human, UniProt Q96IY1 1-281).
T1 sequence (looked up): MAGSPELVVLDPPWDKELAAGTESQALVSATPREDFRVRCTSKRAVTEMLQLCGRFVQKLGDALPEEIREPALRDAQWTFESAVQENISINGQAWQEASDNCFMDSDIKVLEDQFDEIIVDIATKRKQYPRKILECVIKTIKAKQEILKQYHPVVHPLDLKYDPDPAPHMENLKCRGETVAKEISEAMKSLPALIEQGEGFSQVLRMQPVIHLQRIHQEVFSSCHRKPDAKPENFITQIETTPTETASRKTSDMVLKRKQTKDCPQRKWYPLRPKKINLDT
The assay is described as follows: cryo-EM structure.

Assay [6] deals with T2, DSN1 (subunit of the Mis12 complex in the KMN cryo-EM sample) (human, UniProt Q9H410 1-356).
T2 sequence (looked up): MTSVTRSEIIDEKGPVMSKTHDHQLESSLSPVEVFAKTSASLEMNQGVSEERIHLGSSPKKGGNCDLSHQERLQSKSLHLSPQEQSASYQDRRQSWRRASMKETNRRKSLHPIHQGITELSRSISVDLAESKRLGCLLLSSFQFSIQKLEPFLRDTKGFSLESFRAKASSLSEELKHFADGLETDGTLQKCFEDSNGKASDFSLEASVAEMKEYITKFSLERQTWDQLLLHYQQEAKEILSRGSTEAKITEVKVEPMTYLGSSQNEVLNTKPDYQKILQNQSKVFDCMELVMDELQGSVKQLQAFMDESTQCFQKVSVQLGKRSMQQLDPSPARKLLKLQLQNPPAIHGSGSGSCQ
Nature of the assay: cryo-EM structure.

The target of assay [7] is Mis12 complex mutant Mis12C^M3 (human) (UniProt Q9H081). The assay is described as follows: ITC.
Assay [8] concerns the target Mis12 complex mutant Mis12C^M4 (human) (UniProt Q9H081). The assay is described as follows: ITC.
Assay [9] has as its target T3, SPC25 residues 92-224 (human, UniProt Q9HBM1 92-224).
T3 sequence (looked up): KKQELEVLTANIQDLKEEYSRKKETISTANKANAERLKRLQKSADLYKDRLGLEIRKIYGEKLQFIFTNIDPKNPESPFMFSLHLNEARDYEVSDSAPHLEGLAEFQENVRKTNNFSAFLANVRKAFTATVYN
The assay is described as follows: cryo-EM structure.

This is an account of results in paper doi:10.1101/2023.08.07.552315 (bioRxiv, 2023).

Sequence of Ndc80 complex (NDC80/HEC1, NUF2, SPC24, SPC25) (O14777 whole entry, chain 1 of 2): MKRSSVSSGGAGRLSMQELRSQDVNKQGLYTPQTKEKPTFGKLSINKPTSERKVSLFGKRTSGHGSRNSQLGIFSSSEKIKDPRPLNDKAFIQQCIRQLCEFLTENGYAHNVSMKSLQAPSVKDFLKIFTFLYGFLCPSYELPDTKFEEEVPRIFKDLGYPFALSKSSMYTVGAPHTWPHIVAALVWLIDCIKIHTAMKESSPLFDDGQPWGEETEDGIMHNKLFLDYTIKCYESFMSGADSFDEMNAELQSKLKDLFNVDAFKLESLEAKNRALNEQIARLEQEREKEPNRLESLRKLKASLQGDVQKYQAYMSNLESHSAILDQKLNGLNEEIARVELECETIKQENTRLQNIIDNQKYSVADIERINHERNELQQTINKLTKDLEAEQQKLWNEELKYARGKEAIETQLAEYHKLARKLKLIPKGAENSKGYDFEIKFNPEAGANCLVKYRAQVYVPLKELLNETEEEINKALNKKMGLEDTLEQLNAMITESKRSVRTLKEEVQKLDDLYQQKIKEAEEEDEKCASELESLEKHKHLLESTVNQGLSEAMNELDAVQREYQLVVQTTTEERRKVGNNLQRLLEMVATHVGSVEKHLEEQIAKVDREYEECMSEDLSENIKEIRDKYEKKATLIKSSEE
Sequence of Ndc80 complex (NDC80/HEC1, NUF2, SPC24, SPC25) (Q9BZD4 whole entry, chain 2 of 2): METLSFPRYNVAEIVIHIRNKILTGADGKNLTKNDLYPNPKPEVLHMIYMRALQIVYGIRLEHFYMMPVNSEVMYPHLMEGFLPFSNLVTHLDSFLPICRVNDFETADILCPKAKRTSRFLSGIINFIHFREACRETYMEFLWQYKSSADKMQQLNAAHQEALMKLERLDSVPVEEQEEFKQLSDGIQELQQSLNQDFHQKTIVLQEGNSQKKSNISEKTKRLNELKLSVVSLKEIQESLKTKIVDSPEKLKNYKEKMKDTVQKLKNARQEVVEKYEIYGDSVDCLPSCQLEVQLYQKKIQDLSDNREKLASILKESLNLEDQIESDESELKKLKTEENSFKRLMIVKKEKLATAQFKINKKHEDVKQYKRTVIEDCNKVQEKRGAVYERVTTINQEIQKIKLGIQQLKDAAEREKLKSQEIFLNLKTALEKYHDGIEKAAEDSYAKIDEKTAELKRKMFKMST

Consider “KNL1 residues 2026-2342 (domain or fragment)”, for which the Kd in assay [1] was found to be 1.6 nM; in assay [2], 2 nM.

For “Ndc80 complex (NDC80/HEC1, NUF2, SPC24, SPC25) (from UniProt O14777 1-642; Q9BZD4 1-464; Q8NBT2 1-197; Q9HBM1 1-224)”, in assay [3], the Kd amounted to 1 nM and the koff came out at 0.0001 s⁻¹.

B1: Mis12 complex (full length; MIS12, PMF1, NSL1, DSN1) (complex, human)
chain 1: MSVDPMTYEAQFFGFTPQTCMLRIYIAFQDYLFEVMQAVEQVILKKLDGIPDCDISPVQIRKCTEKFLCFMKGHFDNLFSKMEQLFLQLILRIPSNILLPEDKCKETPYSEEDFQHLQKEIEQLQEKYKTELCTKQALLAELEEQKIVQAKLKQTLTFFDELHNVGRDHGTSDFRESLVSLVQNSRKLQNIRDNVEKESKRLKIS
chain 2: MAEASSANLGSGCEEKRHEGSSSESVPPGTTISRVKLLDTMVDTFLQKLVAAGSYQRFTDCYKCFYQLQPAMTQQIYDKFIAQLQTSIREEISDIKEEGNLEAVLNALDKIVEEGKVRKEPAWRPSGIPEKDLHSVMAPYFLQQRDTLRRHVQKQEAENQQLADAVLAGRRQVEELQLQVQAQQQAWQALHREQRELVAVLREPE
chain 3: T1 sequence (looked up)
chain 4: T2 sequence (looked up)
Turning to B1, in assay [4], the Kd was about 6 nM and the dissociation rate constant (koff) is about 0.0001 s⁻¹.

B2: SPC24^109-197/SPC25^92-224 dimer (complex, human)
chain 1: EELKEIEADLERQEKEVDEDTTVTIPSAVYVAQLYHQVSKIEWDYECEPGMVKGIHHGPSVAQPIHLDSTQLSRKFISDYLWSLVDTEW
chain 2: T3 sequence (looked up)
In the case of B2, the binding result in assay [5] and in assay [6] was “binds” throughout. Besides, the fold reduction of the binding affinity against wild-type Mis12C is 20 fold in assay [7] and 10 fold in assay [8].

B3: SPC24 residues 109-197 (domain or fragment, human, UniProt Q8NBT2 109-197, looked up)
chain: B2 chain 1
For the molecule B3, the binding result in assay [9] was “binds”.

A word on the Kd: it is the concentration at which binding is half-saturated. A low value points to higher affinity. The koff is the rate constant with which the complex falls apart.
